Results published in patent US20120219942, “Methods Employing McrA to Detect 5-Methyl Cytosine” (Brookhaven Science Associates, LLC, published 2012).

Assays:
[1] = biological target: T1, McrA (rMcrA-S, C-terminal StrepII) (Escherichia coli, UniProt P24200 P24200:1-277); test: EMSA; NEBuffer 3, RT; details: tags: C-terminal StrepII SAWSHPQFEK
T1 sequence: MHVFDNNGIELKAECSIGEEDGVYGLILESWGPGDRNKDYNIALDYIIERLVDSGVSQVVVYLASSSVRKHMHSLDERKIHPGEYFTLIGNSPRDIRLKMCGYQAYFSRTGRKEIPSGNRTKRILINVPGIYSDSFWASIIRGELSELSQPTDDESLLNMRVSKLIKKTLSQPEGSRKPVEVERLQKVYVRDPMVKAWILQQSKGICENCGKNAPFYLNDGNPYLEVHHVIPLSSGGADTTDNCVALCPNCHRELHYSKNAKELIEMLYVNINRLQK
Procedure: (§1) EMSA binding assays. Reactions (10 μl) typically contained a mixture of 10-25 pMol of various test DNAs, and 250 ng sonicated E. coli. ER2925DNA as a non-methylated, non-specific competitor in 50 mM Tris-HCl, 100 mM NaCl, 1 mM dithiothreitol, 10 mM MgCl₂ (NEBuffer #3), supplemented, with 100 μg/ml BSA. We started the reactions adding 25-175 pMol McrA-S; after 45 min at RT, the entire sample was loaded on 10% acrylamide Tris-Acetate/EDTA gel (1×TAE: 40 mM Tris-Acetate, 1 mM disodium EDTA) which was electrophoresed at RT. Thereafter, the gels were stained with ethidium bromide (0.5 μg/ml) at RT and visualized with UV light. Then, we stained the gels with Coomassie Blue to detect rMcrA-S.

[2] = biological target: T1, McrA (rMcrA-S, C-terminal StrepII); test: EMSA; Ym5CGR somewhat higher affinity; details: tags: C-terminal StrepII SAWSHPQFEK
Procedure: as §1

[3] = biological target: T1, McrA (rMcrA-S, C-terminal StrepII); test: EMSA; C opposite m5C; details: tags: C-terminal StrepII SAWSHPQFEK; mismatch C opposite m5C
Procedure: as §1
(§2) We next tested the ability of rMcrA-S to gel-shift ds-cassettes wherein an A, C, T, U, or I residue is placed opposite the m⁵C.

[4] = biological target: T1, McrA (rMcrA-S, C-terminal StrepII); test: EMSA; hemimethylated; details: tags: C-terminal StrepII SAWSHPQFEK
Procedure: as §1, §2

[5] = biological target: T1, McrA (rMcrA-S, C-terminal StrepII); test: EMSA; T opposite m5C; details: tags: C-terminal StrepII SAWSHPQFEK; mismatch T opposite m5C
Procedure: as §1, §2

[6] = biological target: T1, McrA (rMcrA-S, C-terminal StrepII); test: EMSA; A opposite m5C; details: tags: C-terminal StrepII SAWSHPQFEK; mismatch A opposite m5C
Procedure: as §1, §2

[7] = biological target: T1, McrA (rMcrA-S, C-terminal StrepII); test: EMSA; U opposite m5C; details: tags: C-terminal StrepII SAWSHPQFEK; mismatch U opposite m5C
Procedure: as §1, §2

[8] = biological target: T1, McrA (rMcrA-S, C-terminal StrepII); test: EMSA; high affinity; NEBuffer 3, RT; Mg independent; details: tags: C-terminal StrepII SAWSHPQFEK
Procedure: as §1

[9] = biological target: T1, McrA (rMcrA-S, C-terminal StrepII); test: EMSA; NEBuffer 3, 100 mM NaCl, 10 mM MgCl2, RT; details: tags: C-terminal StrepII SAWSHPQFEK
Procedure: as §1

B1: Gm5CGG cassette (dsDNA)
DNA 1: CCCTCTGGCGGAGGAGGCTCCTGC
DNA 2: GCAGGAGCCTCCTCCGCCAGAGGG
modifications: 5mC at CpG (M.SssI), top 9, bottom 15
[1]
  binding result: binds

B2: Cm5CGA cassette (dsDNA)
DNA 1: CCCTCTGCCGAAGGAGGCTCCTGC
DNA 2: GCAGGAGCCTCCTTCGGCAGAGGG
modifications: 5mC at CpG (M.SssI), top 9, bottom 15
[2]
  binding result: binds

B3: Gm5CGA cassette (dsDNA)
DNA 1: CCCTCTGGCGAAGGAGGCTCCTGC
DNA 2: GCAGGAGCCTCCTTCGCCAGAGGG
modifications: 5mC at CpG (M.SssI), top 9, bottom 15
[1]
  binding result: binds

B4: Tm5CGG cassette (dsDNA)
DNA 1: CCCTCTGTCGGAGGAGGCTCCTGC
DNA 2: GCAGGAGCCTCCTCCGACAGAGGG
modifications: 5mC at CpG (M.SssI), top 9, bottom 15
[2]
  binding result: binds

B5: Am5CGA cassette (dsDNA)
DNA 1: CCCTCTGACGAAGGAGGCTCCTGC
DNA 2: GCAGGAGCCTCCTTCGTCAGAGGG
modifications: 5mC at CpG (M.SssI), top 9, bottom 15
[1]
  binding result: binds

B6: m5C/C mismatch cassette (dsDNA)
DNA 1: GCCTTCAGCGCCGGCGGATCCAGT
DNA 2: ACTGGATCCGCCCGCGCTGAAGGC
modifications: 5mC at position 12 of top strand only
[3]
  binding result: no binding

B7: Am5CGG cassette (dsDNA)
DNA 1: CCCTCTGACGGAGGAGGCTCCTGC
DNA 2: GCAGGAGCCTCCTCCGTCAGAGGG
modifications: 5mC at CpG (M.SssI), top 9, bottom 15
[1]
  binding result: binds

B8: hemimethylated Cm5CGG cassette (m5C/G) (dsDNA)
DNA 1: GCCTTCAGCGCCGGCGGATCCAGT
DNA 2: ACTGGATCCGCCGGCGCTGAAGGC
modifications: 5mC at position 12 of top strand only
[4]
  binding result: binds

B9: m5C/T mismatch cassette (dsDNA)
DNA 1: GCCTTCAGCGCCGGCGGATCCAGT
DNA 2: ACTGGATCCGCCTGCGCTGAAGGC
modifications: 5mC at position 12 of top strand only
[5]
  binding result: no binding

B10: m5CGC cassette (dsDNA)
DNA 1: CCCTCTGACGCAGGAGGCTCCTGC
DNA 2: GCAGGAGCCTCCTGCGTCAGAGGG
modifications: 5mC at CpG (M.SssI), top 9, bottom 15
[1]
  binding result: no binding

B11: m5C/A mismatch cassette (dsDNA)
DNA 1: GCCTTCAGCGCCGGCGGATCCAGT
DNA 2: ACTGGATCCGCCAGCGCTGAAGGC
modifications: 5mC at position 12 of top strand only
[6]
  binding result: no binding

B12: m5CGT cassette (dsDNA)
DNA 1: CCCTCTGACGTAGGAGGCTCCTGC
DNA 2: GCAGGAGCCTCCTACGTCAGAGGG
modifications: 5mC at CpG (M.SssI), top 9, bottom 15
[1]
  binding result: no binding

B13: Tm5CGA cassette (dsDNA)
DNA 1: CCCTCTGTCGAAGGAGGCTCCTGC
DNA 2: GCAGGAGCCTCCTTCGACAGAGGG
modifications: 5mC at CpG (M.SssI), top 9, bottom 15
[2]
  binding result: binds

B14: m5C/U mismatch cassette (dsDNA)
DNA 1: GCCTTCAGCGCCGGCGGATCCAGT
DNA 2: ACTGGATCCGCCUGCGCTGAAGGC
modifications: 5mC at position 12 of top strand only; U in bottom strand opposite m5C
[7]
  binding result: no binding

B15: Cm5CGG cassette (single methylated HpaII site) (dsDNA)
DNA 1: GCCTTCAGCGCCGGCGGATCCAGT
DNA 2: ACTGGATCCGCCGGCGCTGAAGGC
modifications: 5mC at position 12 of both strands
[8]
  binding result: binds

B16: three m5CpG cassette (dsDNA)
DNA 1: GCCTTCAGCGCCGGCGGATCCAGT
DNA 2: ACTGGATCCGCCGGCGCTGAAGGC
modifications: 5mC at positions 9, 12, 15 of both strands
[9]
  binding result: binds

B17: Cm5CGG cassette (M.SssI) (dsDNA)
DNA 1: CCCTCTGCCGGAGGAGGATCCTGC
DNA 2: GCAGGATCCTCCTCCGGCAGAGGG
modifications: 5mC at CpG (M.SssI), top 9, bottom 15
[2]
  binding result: binds
